Results reported in paper PMC11417369, “DNA sequence and chromatin differentiate sequence-specific transcription factor binding in the human malaria parasite Plasmodium falciparum”.

T1: AP2-HC D1 (Plasmodium falciparum, UniProt Q8IKR9 1316-1374)
T1 sequence: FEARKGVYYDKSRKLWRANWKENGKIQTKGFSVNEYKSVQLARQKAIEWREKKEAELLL

B1: CACACA_site1431 (dsDNA)
DNA 1: AAAAAAAAAAAAAATACACACAAATAATAAAAATAA
DNA 2: TTATTTTTATTATTTGTGTGTATTTTTTTTTTTTTT
B2: CACACA_site8859 (dsDNA)
DNA 1: ACGATGTTCATCACTACACACACAAAGAAATATATA
DNA 2: TATATATTTCTTTGTGTGTGTAGTGATGAACATCGT
B3: CACACA_site8795 (dsDNA)
DNA 1: CTTATATATTGCCCTTCACACACACCCATATATATA
DNA 2: TATATATATGGGTGTGTGTGAAGGGCAATATATAAG
B4: CACACA_site8543 (dsDNA)
DNA 1: ATTAATATATAACGTGCACACACACCGTTACGTATG
DNA 2: CATACGTAACGGTGTGTGTGCACGTTATATATTAAT
B5: CACACA_site7028 (dsDNA)
DNA 1: CATACATACATACATACACACATATATAAATATATG
DNA 2: CATATATTTATATATGTGTGTATGTATGTATGTATG
B6: CACACA_site3184 (dsDNA)
DNA 1: TACTAAAACCCATACACACACATATATATAGTACCA
DNA 2: TGGTACTATATATATGTGTGTGTATGGGTTTTAGTA
B7: CACACA_site7567 (dsDNA)
DNA 1: TGCAACAAAATAAACACACACACACTAACACAAAAA
DNA 2: TTTTTGTGTTAGTGTGTGTGTGTTTATTTTGTTGCA
B8: CACACA_site5095 (dsDNA)
DNA 1: ACATCATTTTTATGTACACACACATATACGTTGAAT
DNA 2: ATTCAACGTATATGTGTGTGTACATAAAAATGATGT
B9: CACACA_site9374 (dsDNA)
DNA 1: TATAGAATAATCTATAAACACACAAACACAACAAAA
DNA 2: TTTTGTTGTGTTTGTGTGTTTATAGATTATTCTATA
B10: CACACA_site2250 (dsDNA)
DNA 1: GAAAGAATAAAATTTACACACATATATATATACATA
DNA 2: TATGTATATATATATGTGTGTAAATTTTATTCTTTC
B11: CACACA_site4030 (dsDNA)
DNA 1: AAGGAAATATAATATACACACATAAGTGTACTTATA
DNA 2: TATAAGTACACTTATGTGTGTATATTATATTTCCTT
B12: CACACA_site6202 (dsDNA)
DNA 1: CTCATCCTTACATACACACACATATATTTATTTATA
DNA 2: TATAAATAAATATATGTGTGTGTATGTAAGGATGAG
B13: CACACA_site4209 (dsDNA)
DNA 1: TATATATATGGACACACACACACCAAAGCGTAGCGC
DNA 2: GCGCTACGCTTTGGTGTGTGTGTGTCCATATATATA
B14: CACACA_site8596 (dsDNA)
DNA 1: AATGTGTATATATATACACACACATATATATATTTT
DNA 2: AAAATATATATATGTGTGTGTATATATATACACATT
B15: CACACA_site2432 (dsDNA)
DNA 1: CAAACCCACCAACACACACACACAAAAATGATTAAA
DNA 2: TTTAATCATTTTTGTGTGTGTGTGTTGGTGGGTTTG
B16: CACACA_site7791 (dsDNA)
DNA 1: AAAATTAACCGTAACACACACACATATAAATATGTA
DNA 2: TACATATTTATATGTGTGTGTGTTACGGTTAATTTT
B17: CACACA_site8256 (dsDNA)
DNA 1: AAATAAAGCACACCGACACACACATATATATATATA
DNA 2: TATATATATATATGTGTGTGTCGGTGTGCTTTATTT
B18: CACACA_site6324 (dsDNA)
DNA 1: CATAAATCAGCCATAACACACATACCTATATACATA
DNA 2: TATGTATATAGGTATGTGTGTTATGGCTGATTTATG
B19: CACACA_site4316 (dsDNA)
DNA 1: TGAATAAATCAAAGCACACATACACAGACATATATA
DNA 2: TATATATGTCTGTGTATGTGTGCTTTGATTTATTCA
B20: CACACA_site4891 (dsDNA)
DNA 1: TAATAAATAGGACACACACACATATATATATATTAT
DNA 2: ATAATATATATATATGTGTGTGTGTCCTATTTATTA
B21: CACACA_site6756 (dsDNA)
DNA 1: ACAAATAAAAAAATTACACACATATAAAATATAGAT
DNA 2: ATCTATATTTTATATGTGTGTAATTTTTTTATTTGT
B22: CACACA_site6959 (dsDNA)
DNA 1: GTTTCCTTAATATTCACACACATATCTATAATATAT
DNA 2: ATATATTATAGATATGTGTGTGAATATTAAGGAAAC
B23: CACACA_site7641 (dsDNA)
DNA 1: TACATACACAGACACACACACATATAAATATAAATA
DNA 2: TATTTATATTTATATGTGTGTGTGTCTGTGTATGTA
B24: CACACA_site9254 (dsDNA)
DNA 1: TTAATAAATATCAATACACACACACTAATGTGAATA
DNA 2: TATTCACATTAGTGTGTGTGTATTGATATTTATTAA
B25: CACACA_site1745 (dsDNA)
DNA 1: CACATACAGACATACACACATACACATATACGCATA
DNA 2: TATGCGTATATGTGTATGTGTGTATGTCTGTATGTG
B26: CACACA_site9385 (dsDNA)
DNA 1: AATATATGTTTAATTTCACACACAAATATACATTTT
DNA 2: AAAATGTATATTTGTGTGTGAAATTAAACATATATT
B27: CACACA_site1177 (dsDNA)
DNA 1: TTAATTTATAAAAACACACACAGGTAAAAAGGTGCA
DNA 2: TGCACCTTTTTACCTGTGTGTGTTTTTATAAATTAA
B28: CACACA_site3383 (dsDNA)
DNA 1: ATATTAAACAAACACACACACATATATATATATATA
DNA 2: TATATATATATATATGTGTGTGTGTTTGTTTAATAT
B29: CACACA_site4006 (dsDNA)
DNA 1: ATAAGGAAGGGATGCACACAAAAGGGTACATAAGAA
DNA 2: TTCTTATGTACCCTTTTGTGTGCATCCCTTCCTTAT
B30: CACACA_site269 (dsDNA)
DNA 1: AAATAATTCAAAAAAACACACAAATTACAAAATAAA
DNA 2: TTTATTTTGTAATTTGTGTGTTTTTTTGAATTATTT
B31: CACACA_site1501 (dsDNA)
DNA 1: TAATAATAATTATATACACACATGTATATTATATTT
DNA 2: AAATATAATATACATGTGTGTATATAATTATTATTA
B32: CACACA_site5932 (dsDNA)
DNA 1: GCATTGTCCATGCGCACACACTACTAGAATAATATG
DNA 2: CATATTATTCTAGTAGTGTGTGCGCATGGACAATGC
B33: CACACA_site8848 (dsDNA)
DNA 1: ATATAAATTTTTTATGAACACACAAATACAGACACT
DNA 2: AGTGTCTGTATTTGTGTGTTCATAAAAAATTTATAT
B34: CACACA_site1542 (dsDNA)
DNA 1: AATGTACAAATACGTACACACATATATATATATATA
DNA 2: TATATATATATATATGTGTGTACGTATTTGTACATT
B35: CACACA_site65 (dsDNA)
DNA 1: CATGTAATATTAAACACACACTCATATAACACAATA
DNA 2: TATTGTGTTATATGAGTGTGTGTTTAATATTACATG
B36: CACACA_site1963 (dsDNA)
DNA 1: AACTTGTATATATACACACACACACTGTCTTTTTTT
DNA 2: AAAAAAAGACAGTGTGTGTGTGTATATATACAAGTT
B37: CACACA_site1016 (dsDNA)
DNA 1: AAATAATGGTTAGCTACACACAAAGCATTTTTTGAA
DNA 2: TTCAAAAAATGCTTTGTGTGTAGCTAACCATTATTT
B38: CACACA_site9055 (dsDNA)
DNA 1: ATATATATATATATTGTACACACATTTATGCATATA
DNA 2: TATATGCATAAATGTGTGTACAATATATATATATAT
B39: CACACA_site8866 (dsDNA)
DNA 1: CCGCCATTGTACCATCCACACACATATATATATGTA
DNA 2: TACATATATATATGTGTGTGGATGGTACAATGGCGG
B40: CACACA_site7630 (dsDNA)
DNA 1: ATTATACACGCGCGCACACACAACAAAAAAAAAAAA
DNA 2: TTTTTTTTTTTTGTTGTGTGTGCGCGCGTGTATAAT
B41: CACACA_site498 (dsDNA)
DNA 1: TACACCCACCAACACACACACACACCCAAAAAAAAA
DNA 2: TTTTTTTTTGGGTGTGTGTGTGTGTTGGTGGGTGTA
B42: CACACA_site4573 (dsDNA)
DNA 1: TATGCAAGGAACCACACACACACACCGAAATGTATA
DNA 2: TATACATTTCGGTGTGTGTGTGTGGTTCCTTGCATA
B43: CACACA_site7688 (dsDNA)
DNA 1: AATATAAATAAAAACACACACAATGGTACCTATATA
DNA 2: TATATAGGTACCATTGTGTGTGTTTTTATTTATATT
B44: CACACA_site8083 (dsDNA)
DNA 1: AAAAAAAAAAAAAAAACACACACATGCACATCATAT
DNA 2: ATATGATGTGCATGTGTGTGTTTTTTTTTTTTTTTT

Target: T1, AP2-HC D1
Assay: gcPBM; about 25 ug protein; PBS, 1% milk, 0.2 mg/ml BSA, salmon testes DNA, 0.03% Triton X-100
Conditions: tags: N-terminal GST (pGEX-4T-1), kept; label: surface-attached array probe

Row | Binder | binding signal
1 | B1 | 10.1 ln median PBM intensity, better of two orientations
2 | B2 | 10.1 ln median PBM intensity, better of two orientations
3 | B3 | 10.6 ln median PBM intensity, better of two orientations
4 | B4 | 10.3 ln median PBM intensity, better of two orientations
5 | B5 | 10.2 ln median PBM intensity, better of two orientations
6 | B6 | 10.2 ln median PBM intensity, better of two orientations
7 | B7 | 10.5 ln median PBM intensity, better of two orientations
8 | B8 | 10.2 ln median PBM intensity, better of two orientations
9 | B9 | 10.1 ln median PBM intensity, better of two orientations
10 | B10 | 9.82 ln median PBM intensity, better of two orientations
11 | B11 | 9.82 ln median PBM intensity, better of two orientations
12 | B12 | 10.2 ln median PBM intensity, better of two orientations
13 | B13 | 10.3 ln median PBM intensity, better of two orientations
14 | B14 | 10.1 ln median PBM intensity, better of two orientations
15 | B15 | 10.5 ln median PBM intensity, better of two orientations
16 | B16 | 10.4 ln median PBM intensity, better of two orientations
17 | B17 | 10.4 ln median PBM intensity, better of two orientations
18 | B18 | 10.3 ln median PBM intensity, better of two orientations
19 | B19 | 10.4 ln median PBM intensity, better of two orientations
20 | B20 | 10.5 ln median PBM intensity, better of two orientations
21 | B21 | 10.1 ln median PBM intensity, better of two orientations
22 | B22 | 10.2 ln median PBM intensity, better of two orientations

Row | Binder | binding signal
23 | B23 | 10.4 ln median PBM intensity, better of two orientations
24 | B24 | 10.1 ln median PBM intensity, better of two orientations
25 | B25 | 10.2 ln median PBM intensity, better of two orientations
26 | B26 | 10.2 ln median PBM intensity, better of two orientations
27 | B27 | 10.3 ln median PBM intensity, better of two orientations
28 | B28 | 10.2 ln median PBM intensity, better of two orientations
29 | B29 | 10.5 ln median PBM intensity, better of two orientations
30 | B30 | 10.2 ln median PBM intensity, better of two orientations
31 | B31 | 9.81 ln median PBM intensity, better of two orientations
32 | B32 | 10.2 ln median PBM intensity, better of two orientations
33 | B33 | 10.3 ln median PBM intensity, better of two orientations
34 | B34 | 10.2 ln median PBM intensity, better of two orientations
35 | B35 | 10.2 ln median PBM intensity, better of two orientations
36 | B36 | 10.5 ln median PBM intensity, better of two orientations
37 | B37 | 9.81 ln median PBM intensity, better of two orientations
38 | B38 | 10.3 ln median PBM intensity, better of two orientations
39 | B39 | 10.3 ln median PBM intensity, better of two orientations
40 | B40 | 10.3 ln median PBM intensity, better of two orientations
41 | B41 | 10.5 ln median PBM intensity, better of two orientations
42 | B42 | 10.6 ln median PBM intensity, better of two orientations
43 | B43 | 10.3 ln median PBM intensity, better of two orientations
44 | B44 | 10.4 ln median PBM intensity, better of two orientations
